The values that follow are results of earlier work, collected in US8759488B2, “High stability streptavidin mutant proteins” (Isis Innovation Limited, priority 2009, dated 2014).

“And” between values parts separate entries of the source, which are not always exact repeats. Equal entries are not always repeated.

B1: monomeric streptavidin: streptavidin subunit unable to tetramerise, e.g. with mutations T76R, V125R, V55T and L109T (protein)
chain: DPSKDSKAQVSAAEAGITGTWYNQLGSTFIVTAGADGALTGTYESAVGNAESRYTLTGRYDSAPATDGSGTALGWRVAWKNNYRNAHSATTWSGQYVGGAEARINTQWTLTSGTTEANAWKSTLRGHDTFTKVKPSAASIDAAKKAGVNNGNPLDAVQQ
Consider B1, for which, under “biotin”, the “half life for biotin” value is “approximately 3 minutes”. For the same molecule, the “off rate of biotin” value (free biotin) is 0.0034 s⁻¹ and 0.0041 s⁻¹.
